Sequences and labels used below:
B1: VH:VL chains; a variant is named by its letters at X, in order (parent)
chain 1: QVQLVQSGAEVKKPGASVKVSCKASGYTFTDYXMHWVRQAPGQGLEWMGXVNPNXXXTTYNQKFEGRVTMTTDTSTSTAYMELRSLRSDDTAVYYCARXNXLDXWGQGTTVTVSS
chain 2: DIQMTQSPSSLSASVGDRVTITCSVSSSVSSIYLHWYQQKPGKAPKLLIYSTSNLASGVPSRFSGSGSGTDFTLTISSLQPEDFATYYCQVYSGYPLTFGGGTKVEIK

Variants of B1 are the subject of this series. As to the kind of experiment: yeast display scFab, FACS + sequencing. A digest of the protocol: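 Heavy-chain CDR mutant scFab yeast surface library, FACS-sorted after labelling with biotinylated ovalbumin (260 μg/mL in PBSB, 3 h, room temperature) or soluble membrane proteins (130 μg/mL, 20 min on ice), plus anti-Myc. Gates collected the top 25% and bottom 10% of binders, and samples from two replicates were deep sequenced. Non-specific binding call: a sequence was positive if found in ≥3 of 4 positive samples (membrane protein and ovalbumin pooled) and no negatives, and negative by the converse rule.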
Consider FRGGDYGS, for which the non-specific binding call is “binds”.

As to YRGGGAAF, the non-specific binding call is “binds”. On to YRGKAFGV, for which the non-specific binding call was “binds”. For YRERTAAV, the non-specific binding call is “binds”.

As to FRGEGSVS, the non-specific binding call is “binds”.

Turning to YREKGSSV, the non-specific binding call is listed as “binds”.

As for YREKGSSA, the non-specific binding call is “binds”.

As for VRGGGFGD, the non-specific binding call is reported as “binds”. Take VRGGGFGV: the non-specific binding call was “no binding”. In the case of ARGEGSGV it was “no binding”. FRGGSVGY: the non-specific binding call is reported as “binds”. For the variant SRGGSALA, the non-specific binding call is on record as “no binding”. With YRERDSAD, the non-specific binding call is on record as “binds”. With ARERGDGY, the non-specific binding call is “no binding”. Consider VRGGDDGV, for which the non-specific binding call is “no binding”. In the case of VRGGDDGS it was “no binding”; in that of FRGGDSAD, “binds”. Consider YRGGGYGF, for which the non-specific binding call is “binds”. As for VRGGDAVY chain 1 G44D, the non-specific binding call is on record as “no binding”. In the case of YRGAAASS it was “no binding”; in that of YRGESSGF, “binds”.

In the case of YRGGGDSV, the non-specific binding call is listed as “no binding”. With DRERGDGY, the non-specific binding call is on record as “no binding”. For the variant FRGGSSGV, the non-specific binding call is “binds”.

With FRGGSSGS, the non-specific binding call is on record as “binds”. In the case of YRGANSGA it was “binds”; in that of YRERGAGF, “binds”. In the case of VRERSSVD, the non-specific binding call was “binds”. Consider YRGGAAWD, for which the non-specific binding call is reported as “binds”. YRGGAAWY: the non-specific binding call is “binds”. For the variant YRERGAAD, the non-specific binding call is reported as “binds”.

With YRERGAAF, the non-specific binding call is on record as “binds”. For YRERGAAV, the non-specific binding call is recorded as “binds”. As to YRERGAAA, the non-specific binding call is reported as “binds”. Consider VRGAGSWV, for which the non-specific binding call is listed as “binds”.

For the variant VRGGGAAV, the non-specific binding call was “no binding”. Take VRGGGAAY: the non-specific binding call is on record as “no binding”. As for FRGGGDWD, the non-specific binding call is reported as “no binding”.

For VRGGGSAA, the non-specific binding call is recorded as “binds”. Consider YRGASSWV, for which the non-specific binding call is on record as “binds”. For the variant YRERSDVS, the non-specific binding call is on record as “binds”. For the variant YRERNAAA, the non-specific binding call is given as “binds”.

Regarding FRERNAAA, the non-specific binding call was “binds”. In the case of YRGKDAAY, the non-specific binding call is on record as “binds”. With SRGGGALD, the non-specific binding call is given as “no binding”.

Take YRGAGYAA: the non-specific binding call is given as “binds”. For FRGEGFSV, the non-specific binding call is “binds”. Under YRGAGSAD stands “binds”.

As to YRGKASVD, the non-specific binding call is listed as “binds”. Regarding YRGGGSVF, the non-specific binding call is recorded as “binds”. Turning to FRGGGVGV, the non-specific binding call was “binds”.

Regarding YRGGGALS, the non-specific binding call is “binds”. On to SRGGAAWA, for which the non-specific binding call was “binds”. As for FRGGSAVY, the non-specific binding call is reported as “binds”. For FRGGSAVD, the non-specific binding call is reported as “binds”. With YRGKASWD, the non-specific binding call is “binds”. As for YRGAGSLD, the non-specific binding call was “binds”. Turning to YRGEASVD, the non-specific binding call was “binds”.

With YRGGGVVD, the non-specific binding call is recorded as “binds”. YRGGDDSS: the non-specific binding call was “no binding”.

Turning to YRGGDDSV, the non-specific binding call is listed as “no binding”. Under YRGKDAGA stands “binds”; under YRGGGDVS, “binds”; under YRGGTAAA, “binds”. For the variant FRGESSWD, the non-specific binding call is on record as “binds”. As to FRERGAVV, the non-specific binding call is “binds”. In the case of ARGKASSY, the non-specific binding call was “no binding”. Turning to YRGAGYGS, the non-specific binding call was “binds”.

Regarding FRGKADVD, the non-specific binding call is on record as “binds”. On to YRERGALS, for which the non-specific binding call was “binds”.

As to YRERGALA, the non-specific binding call was “binds”. Regarding FRGKDASA, the non-specific binding call is reported as “no binding”.

In the case of SRGGDDVA, the non-specific binding call was “no binding”. As to YRERSSLD, the non-specific binding call was “binds”. In the case of YRGKASGD it was “binds”; in that of FRGESAGA, “binds”. With FRGESAGV, the non-specific binding call is “binds”.

As for FRGESAGS, the non-specific binding call is “binds”. Take YRGAGAVY: the non-specific binding call is “binds”. Under YRGAGAVS stands “binds”; under YRGKAAGD, “binds”. On to YRGKAAGV, for which the non-specific binding call was “binds”. For the variant DRGGDDVV, the non-specific binding call is given as “no binding”. Regarding DRGGDDVY, the non-specific binding call is “no binding”. In the case of DRGGDDVD it was “no binding”; in that of FRGEGALV, “binds”. Take YRGGDYGA: the non-specific binding call was “no binding”. For YRGGDDLV, the non-specific binding call was “no binding”. Turning to YRGGDDLY, the non-specific binding call is “no binding”. On to FRGEGSGV, for which the non-specific binding call was “binds”. Turning to VRERGSLY, the non-specific binding call is “binds”. In the case of YRGGGYLV it was “no binding”. In the case of YRGGSDVA it was “no binding”; in that of FRGGGSVS, “binds”. VRGGGAWV: the non-specific binding call is recorded as “binds”. In the case of DRGGDDWY, the non-specific binding call is “no binding”. As for DRGGDDWV, the non-specific binding call is recorded as “no binding”. For the variant YREKGSLD, the non-specific binding call is listed as “binds”. With VRGGGDWV, the non-specific binding call was “no binding”. As to DRGGSAGD, the non-specific binding call is “no binding”.

Turning to YRERGAVV, the non-specific binding call was “binds”. As for YRERAAGY, the non-specific binding call is reported as “binds”.

Regarding FRGGGSGF, the non-specific binding call was “binds”. For the variant FRGGGSGS, the non-specific binding call is reported as “binds”. Regarding FRGGGSGV, the non-specific binding call is “binds”. DRGGDSLD: the non-specific binding call is listed as “no binding”. Consider VRGGDDWA, for which the non-specific binding call is given as “no binding”. Turning to VRGGDDWF, the non-specific binding call is on record as “no binding”.

Turning to YRGGDSSY, the non-specific binding call is recorded as “no binding”. Regarding YRGAGFVD, the non-specific binding call is recorded as “binds”. For the variant DRGGDDLV, the non-specific binding call is “no binding”.

Take FRERGAGD: the non-specific binding call is “binds”. FRERGAGY: the non-specific binding call is recorded as “binds”. For the variant FRETDFGA, the non-specific binding call was “binds”. As to YRERGSWV, the non-specific binding call was “binds”. Take YRGGDYLV: the non-specific binding call is “no binding”.

For YRGKDALA, the non-specific binding call is reported as “binds”. Turning to FRGESSGA, the non-specific binding call is “binds”. On to YRGANVVY, for which the non-specific binding call is “binds”.

Take YRGGASAA: the non-specific binding call is “binds”. Under YRGASSGF stands “binds”; under YRGAGAGA, “binds”.

The values above are taken from the emibetuzumab library of Makowski et al. (2022).
